Assay [1] deals with antibody P1. Kind of assay: peptide competition ELISA. Background: In an ELISA, binding on a coated surface is turned into a signal by an enzyme label.
Assay [2] concerns the target antibody P1. Nature of the assay: peptide competition ELISA; free peptide against immobilized target peptide for P1.
Assay [3] concerns the target antibody C1. Kind of assay: peptide competition ELISA (Example 5): the free peptide, in rising concentration, competes with the plate-bound target peptide for antibody C1; HRP-labelled secondary antibody, absorbance at 450.
The target of assay [4] is antibody C1. Nature of the assay: peptide competition ELISA; free peptide competes with immobilized target peptide for C1.
The target of assay [5] is antibody C1. Nature of the assay: peptide competition ELISA; free peptide against immobilized target peptide for C1.
For assay [6], the target named is antibody C1. Kind of assay: peptide competition ELISA.
Assay [7] has as its target antibody P1. Kind of assay: peptide competition ELISA; free peptide competes with immobilized target peptide for P1.
Assay [8] addresses antibody P1. Kind of assay: peptide competition ELISA (Example 5): the free peptide, in rising concentration, competes with the plate-bound target peptide for antibody P1; HRP-labelled secondary antibody, absorbance at 450.

Where no end group is shown, it is not given here. Bounds are passed on as bounds.

B1: nearest-neighbor 8-mer peptide DPTQLTDA (peptide)
peptide: DPTQLTDA
As to B1, the fold higher concentration without competition, against the antigen PET EPAELTDA with antibody P1 [1] came to 25000 fold. Besides, the IC50 (usually the midpoint of a concentration-inhibition curve) with antibody P1 [2] is greater than 1 mM.

B2: nearest-neighbor 8-mer peptide EPVELTSA (peptide)
peptide: EPVELTSA
For B2, the fold higher concentration without competition, against the antigen PET EPAELTDA with antibody P1 [1] came out at 25000 fold. In the assay with antibody P1 [2], the IC50 was greater than 1 mM.

B3: CRP-derived 8-mer PET peptide YEVQGEVF (peptide)
peptide: YEVQGEVF
The molecule B3 had an IC50 (read off the curve) in the assay with antibody C1 [3] of 0.9 µM. The molecule further had an IC50 in the assay with antibody C1 [4] of 1000 nM.

B4: nearest-neighbor 8-mer peptide YEVLGEEF (peptide)
peptide: YEVLGEEF
Turning to B4, in the assay with antibody C1 [5], the IC50 was greater than 1 mM. The same molecule displayed a fold higher concentration without competition, against the antigen PET YEVQGEVF in the assay with antibody C1 [6] greater than 1000 fold.

B5: nearest-neighbor 8-mer peptide VEVNGEVF (peptide)
peptide: VEVNGEVF
Take B5: the IC50 in the assay with antibody C1 [5] is greater than 1 mM. The molecule also yielded a fold higher concentration without competition, against the antigen PET YEVQGEVF in the assay with antibody C1 [6] greater than 1000 fold.

B6: PSA-derived 8-mer PET peptide EPAELTDA (peptide)
peptide: EPAELTDA
modifications: not fully specified
Molecule B6 showed an IC50 with antibody P1 [7] of 40 nM. The IC50 (read off the curve) with antibody P1 [8] came out at 90 nM.

(Values after patent US20050069911A1.)
